Consider 4 substances from publication PMC3196588.

Assay [1] addresses C3S mutant of human galectin-1 (human) (UniProt P09382). The assay is described as follows: fluorescence polarisation; fluorescence anisotropy inhibition assay: haptoglobin as inhibitor of the interaction of galectin-1 or mutants with a fluorescein tagged thiodigalactoside-amid (tdga) probe; Kd from inhibitory potency, haptoglobin counted as the dimer. (In fluorescence polarisation assays a small probe gives low polarisation when free and higher when bound to something large.)

The target is the same in assay [2]. The assay is described as follows: affinity chromatography; galectin-1 C3S (or C3S N34D) coupled to 1 ml column; 2 mg haptoglobin (pooled from human plasma) in 2 ml PBS circulated 30 min on ice; wash 32 column volumes PBS; elution with 150 mM lactose; unbound fraction rechromatographed.
Assay [3] has the same target. The assay is described as follows: affinity chromatography; galectin-1 C3S coupled to 1 ml NHS-activated Hi-Trap column; 0.1 ml serum from metastatic breast cancer patients in 1.9 ml PBS circulated 30 min on ice; wash 32 column volumes PBS; elution with 150 mM lactose; bound proteins identified by SDS-PAGE, MALDI-TOF MS and western blot, IgM and haptoglobin quantitated by ELISA. In general terms: In western blotting, separated proteins are transferred to a membrane and probed.

The target is the same in assay [4]. The assay is described as follows: affinity chromatography; galectin-1 C3S (or its site B mutants) coupled to 1 ml NHS-activated Hi-Trap column; 0.1 ml serum from healthy individuals in 1.9 ml PBS circulated 30 min on ice; wash 32 column volumes PBS; elution with 150 mM lactose; bound proteins identified by SDS-PAGE, MALDI-TOF MS and western blot, IgM and haptoglobin quantitated by ELISA.

For orientation: Kd means a measure of binding affinity in units of concentration. Read a low Kd as higher affinity. With “galectin-1 binding fraction of haptoglobin (from UniProt P00738 19-160; P00738 162-406) (complex)”, in assay [1], the Kd was below 1000 nM.
Take “haptoglobin (human, unfractionated) (from UniProt P00738 19-160; P00738 162-406) (complex)”: the percent bound to the column in assay [2] turned out to be 30%. In assay [3], this substance had a percent of haptoglobin bound to galectin-1 (average, cancer sera) of 50%. Also, in assay [1], the Kd worked out at 2500 nM. The percent of haptoglobin bound to galectin-1 (average, control sera) in assay [4] was 30%.
Regarding “galectin-1 non-binding fraction of haptoglobin (from UniProt P00738 19-160; P00738 162-406) (complex)”, the percent bound to the column when rechromatographed in assay [2] is below 1%.
Take “IgM (human serum) (from UniProt P01591 23-159) (complex)”: the percent of IgM bound to galectin-1 (mean, cancer sera) in assay [3] is 28%. In assay [4], this substance had a percent of IgM bound to galectin-1 (mean, healthy sera) of 37%.
